The values that follow come from patent US9969795.

In the assay the target is recombinant influenza HA3-protein (from H3N2, Wyoming, March 2003, Sino Biological Inc.) (Influenza virus H3N2 (Wyoming, March 2003)). The experiment in a line: SPR imaging (IBIS MX96), antibody captured on anti-human-IgG chip, HA3 1 ug/ml; global 1:1 fit in Scrubber2.

B1: AT10_004 (antibody, V domains shown)
VH: QVQLVQSGAEVRKPGASVKVSCKASGYTFTRHGISWVRQAPGQGLEWMGWISAYTGDTDYAQKFQGRVTMTTDTSTNTAYMELRSLRSDDAAVYYCARLRLQGEVVVPPSQSNWFDPWGQGTLVTVSS
VL: EIVLTQSPATLSLYPGERATLSCRASQSVSRYLAWYQQKPGQAPRLLIYDASNRATGIPARFSGSGSGTDFTLTISSLEPEDFAVYYCQQRSNWLKITFGQGTRLEIKG
A word on the Kd: it is the equilibrium constant for the complex coming apart. Usually koff stands for the first-order rate constant of dissociation. One may read the kon as the rate constant with which the complex forms. As for B1, the Kd stood at 0.07 nM, the dissociation rate constant (koff) stood at 1e-06 s⁻¹ and the kon came out at 14000 M⁻¹ s⁻¹.
